Assay results reported in patent publication US20080242608A1 (published 2008).

B1: Endogenous FOXO3 (293T cells) (other, UniProt O43524 1-673, looked up)
chain: MAEAPASPAPLSPLEVELDPEFEPQSRPRSCTWPLQRPELQASPAKPSGETAADSMIPEEEDDEDDEDGGGRAGSAMAIGGGGGSGTLGSGLLLEDSARVLAPGGQDPGSGPATAAGGLSGGTQALLQPQQPLPPPQPGAAGGSGQPRKCSSRRNAWGNLSYADLITRAIESSPDKRLTLSQIYEWMVRCVPYFKDKGDSNSSAGWKNSIRHNLSLHSRFMRVQNEGTGKSSWWIINPDGGKSGKAPRRRAVSMDNSNKYTKSRGRAAKKKAALQTAPESADDSPSQLSKWPGSPTSRSSDELDAWTDFRSRTNSNASTVSGRLSPIMASTELDEVQDDDAPLSPMLYSSSASLSPSVSKPCTVELPRLTDMAGTMNLNDGLTENLMDDLLDNITLPPSQPSPTGGLMQRSSSFPYTTKGSGLGSPTSSFNSTVFGPSSLNSLRQSPMQTIQENKPATFSSMSHYGNQTLQDLLTSDSLSHSDVMMTQSDPLMSQASTAVSAQNSRRNVMLRNDPMMSFAAQPNQGSLVNQNLLHHQHQTQGALGGSRALSNSVSNMGLSESSSLGSAKHQQQSPVSQSMQTLSDSLSGSSLYSTSANLPVMGHEKFPSDLDLDMFNGSLECDMESIIRSELMDADGLDFNFDSLISTQNVVGLNVGNFTGAKQASSQSWVPG

What was measured:
[1] = molecular target: B1; assay: co-IP from 293T lysates with rabbit FOXO3 antibody, MST1 immunoblot
[2] = molecular target: T1, protein kinase MLK3 (endogenous, 293T cells) (UniProt Q16584 1-847); assay: co-IP from 293T lysates with rabbit FOXO3 antibody, MLK3 immunoblot
T1 construct: Negative control in the co-immunoprecipitation of endogenous FOXO3
T1 sequence (Q16584 whole entry): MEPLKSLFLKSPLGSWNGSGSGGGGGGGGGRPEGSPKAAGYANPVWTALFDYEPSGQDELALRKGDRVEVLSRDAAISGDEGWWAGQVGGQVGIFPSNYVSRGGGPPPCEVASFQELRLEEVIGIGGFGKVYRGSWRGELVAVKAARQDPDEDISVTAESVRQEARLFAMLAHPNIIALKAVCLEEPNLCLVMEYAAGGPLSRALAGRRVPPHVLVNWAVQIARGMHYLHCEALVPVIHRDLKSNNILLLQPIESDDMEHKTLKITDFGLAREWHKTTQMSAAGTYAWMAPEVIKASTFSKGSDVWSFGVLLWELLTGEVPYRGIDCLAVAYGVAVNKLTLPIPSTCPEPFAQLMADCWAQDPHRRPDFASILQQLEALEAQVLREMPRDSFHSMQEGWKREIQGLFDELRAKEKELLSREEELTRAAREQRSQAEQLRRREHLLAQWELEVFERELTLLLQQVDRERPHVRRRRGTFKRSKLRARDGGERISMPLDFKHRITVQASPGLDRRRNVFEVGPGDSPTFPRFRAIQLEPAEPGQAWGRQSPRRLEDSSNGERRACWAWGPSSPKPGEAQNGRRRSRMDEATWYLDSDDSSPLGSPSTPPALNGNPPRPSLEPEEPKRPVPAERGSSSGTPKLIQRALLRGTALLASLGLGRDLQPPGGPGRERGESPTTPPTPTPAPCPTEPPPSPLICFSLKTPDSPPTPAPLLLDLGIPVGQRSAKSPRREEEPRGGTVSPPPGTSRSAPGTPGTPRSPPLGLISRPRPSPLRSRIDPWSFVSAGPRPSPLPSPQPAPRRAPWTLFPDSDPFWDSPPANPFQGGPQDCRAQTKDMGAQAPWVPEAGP

Row | binding result [1] | binding result [2] | Binder
1 | binds |  | Endogenous MST1 (293T cells) (enzyme, UniProt Q13043 1-487, looked up) METVQLRNPPRRQLKKLDEDSLTKQPEEVFDVLEKLGEGSYGSVYKAIHKETGQIVAIKQVPVESDLQEIIKEISIMQQCDSPHVVKYYGSYFKNTDLWIVMEYCGAGSVSDIIRLRNKTLTEDEIATILQSTLKGLEYLHFMRKIHRDIKAGNILLNTEGHAKLADFGVAGQLTDTMAKRNTVIGTPFWMAPEVIQEIGYNCVADIWSLGITAIEMAEGKPPYADIHPMRAIFMIPTNPPPTFRKPELWSDNFTDFVKQCLVKSPEQRATATQLLQHPFVRSAKGVSILRDLINEAMDVKLKRQESQQREVDQDDEENSEEDEMDSGTMVRAVGDEMGTVRVASTMTDGANTMIEHDDTLPSQLGTMVINAEDEEEEGTMKRRDETMQPAKPSFLEYFEQKEKENQINSFGKSVPGPLKNSSDWKIPQDGDYEFLKSWTVEDLQKRLLALDPMMEQEIEEIRQKYQSKRQPILDAIEAKKRRQQNF
2 |  | no binding | B1
